The record followed here is patent US20260097113A1 (Pfizer, published 2026).

Assay [1] addresses RSV A + RSV B bivalent composition (RSV subtype A; RSV subtype B). Briefly: AM14 Fab titration by SEC; composition of Table 14; Target lyophilization cycle, T0. Background: In gel filtration, larger molecules generally elute earlier.
For assay [2] the target is unchanged. Briefly: AM14 Fab titration by SEC; High-Slow 1 cycle; 8 M 40°C.
For assay [3] the target is unchanged. Put plainly: AM14 Fab titration by SEC; Target cycle; T0 (second value).
Assay [4] has the same target. Put plainly: AM14 Fab titration by SEC; Target cycle; 8 M 40°C.
Assay [5] has the same target. Briefly: AM14 Fab titration by SEC; Low-Fast cycle; 1 M 25°C.
Assay [6] concerns the target T1, RSV F protein of subtype A comprising a polypeptide of SEQ ID NO: 1 and a polypeptide of SEQ ID NO: 2 (RSV subtype A, UniProt P11209 137-513; P03420 26-109).
T1 construct: Stabilized prefusion F trimer made of three F2-F1 heterodimers; Produced recombinantly in CHO cells; also called RSV A; RSVA
T1 chain 1: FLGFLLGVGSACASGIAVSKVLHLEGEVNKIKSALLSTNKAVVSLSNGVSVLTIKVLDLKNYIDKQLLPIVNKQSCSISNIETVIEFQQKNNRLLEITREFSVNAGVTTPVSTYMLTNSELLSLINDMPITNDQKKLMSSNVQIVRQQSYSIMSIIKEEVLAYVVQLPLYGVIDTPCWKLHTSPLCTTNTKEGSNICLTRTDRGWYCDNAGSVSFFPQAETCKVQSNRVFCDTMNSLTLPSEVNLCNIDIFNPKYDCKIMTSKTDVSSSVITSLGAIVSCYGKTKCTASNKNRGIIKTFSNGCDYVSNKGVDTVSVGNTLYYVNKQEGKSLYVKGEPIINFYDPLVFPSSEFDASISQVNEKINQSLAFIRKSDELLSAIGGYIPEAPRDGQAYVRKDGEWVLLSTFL
T1 chain 2: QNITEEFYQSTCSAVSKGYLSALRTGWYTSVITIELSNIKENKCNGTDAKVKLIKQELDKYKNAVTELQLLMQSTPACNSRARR
Put plainly: AM14 ELISA; F18 (pH 7, 50 mM NaCl, 3% sucrose + 3% mannitol); 1 wk 25°C.

Assay [7] addresses T1, RSV F protein of subtype A comprising a …. Briefly: AM14 ELISA; F15 (pH 6, 0 mM NaCl, 9% sucrose); 1 wk 25°C.
The target is the same in assay [8]. Put plainly: AM14 ELISA; F17 (pH 7, 50 mM NaCl, 4.5% trehalose); 1 wk 5°C. In general terms: In an ELISA, binding on a coated surface is turned into a signal by an enzyme label.
For assay [9] the target is unchanged. Briefly: AM14 ELISA; F5 (pH 6, 100 mM NaCl, 9.0% sucrose); T0.
The target is the same in assay [10]. Briefly: AM14 ELISA; F6 (pH 7, 0 mM NaCl, 4.5% sucrose); T0.
The target is the same in assay [11]. Put plainly: AM14 ELISA; F18 (pH 7, 50 mM NaCl, 3% sucrose + 3% mannitol); T0.
Assay [12] shares this target. Put plainly: AM14 ELISA; F5 (pH 6, 100 mM NaCl, 9.0% sucrose); 2 wk 25°C.
For assay [13] the target is unchanged. Briefly: AM14 ELISA; F14 (pH 7, 50 mM NaCl, 4.5% sucrose); 2 wk 25°C.
Assay [14] has the same target. Put plainly: AM14 ELISA; F13 (pH 7, 100 mM NaCl, 4.5% sucrose); T0.
Assay [15] shares this target. Put plainly: AM14 ELISA; F12 (pH 8, 100 mM NaCl, 9.0% sucrose); 1 wk 25°C.
For assay [16] the target is unchanged. Put plainly: AM14 ELISA; F11 (pH 7, 50 mM NaCl, 9.0% sucrose); T0.
Assay [17] has the same target. Put plainly: AM14 ELISA; F17 (pH 7, 50 mM NaCl, 4.5% trehalose); T0.

AM14 Fab: the Prefusion Content (%) is 80% in assay [1]; 53% in [2]; 77% in assay [3]; 67% in assay [4]; 63% in assay [5].

B1: AM14 (trimeric prefusion specific antibody of the AM14 ELISA) (antibody, V domains shown)
VH: EVQLVESGGGVVQPGRSLRLSCAASGFSFSHYAMHWVRQAPGKGLEWVAVISYDGENTYYADSVKGRFSISRDNSKNTVSLQMNSLRPEDTALYYCARDRIVDDYYYYGMDVWGQGATVTVSS
VL: DIQMTQSPSSLSASVGDRVTITCQASQDIKKYLNWYHQKPGKVPELLMHDASNLETGVPSRFSGRGSGTDFTLTISSLQPEDIGTYYCQQYDNLPPLTFGGGTKVEIKR
notes: Antibody as used in the AM14 ELISA, detected with an HRP-labeled secondary antibody
Take B1: the “AM14 prefusion content (%), relative to standard” value amounted to 83% in assay [6]; 99% in assay [7]; 59% in assay [8]; 91% in assay [9]; 99% in assay [10]; 91% in [11]. Further, the “AM14 prefusion content (%), relative to standard” value is 98% in assay [12]; 78% in assay [13]; 97% in assay [14]; 82% in [15]; 102% in assay [16]; 86% in [17].
